Test results from publication PMC8699212, “Mechanism of Zn^2+ and Ca^2+ Binding to Human S100A1” (Biomolecules, 2021).

Biological target: the molecule itself
Assay: dynamic light scattering (DLS); 50 µM S100A1, 37 °C, without divalent metal ions or with 0.5-10 mM Ca2+ or Zn2+; hydrodynamic diameter (volume distribution); monomer to dimer

B1: S100A1 (natural protein, human)
chain: GSELETAMETLINVFHAHSGKEGDKYKLSKKELKELLQTELSGFLDAQKDVDAVDKVMKELDENGDGEVDFQEYVVLVAALTVACNNFFWENS
modifications: N-formylmethionine (fMet) at the N-terminus
notes: theoretical mass 10,545.5 Da, measured 10,571.2 ± 1.4 Da (fMet at the N-terminus); also called recombinant S100A1; human S100A1; source: residual Ca2+ removed
stoichiometry N: 2
